Reference: patent publication US20250352667A1
Substitutions are numbered along the chain they refer to. Names may count otherwise.

Key:
[1] = target: KEAP1 (wild-type full-length), His-tagged (human) (UniProt Q14145); experiment: AlphaScreen, all variants on one plate; optimal condition (19.2 nM NRF2), KEAP1 150 nM; the reference itself
[2] = target: KEAP1 (wild-type full-length), His-tagged (human) (UniProt Q14145); experiment: AlphaScreen; 19.2 nM FLAG-NRF2, 150 nM His-KEAP1; Repeat 2 (same value as in Table 26)
[3] = target: KEAP1 (wild-type full-length), His-tagged (human) (UniProt Q14145); experiment: AlphaScreen; 1228.8 nM FLAG-NRF2, 150 nM His-KEAP1; signal against NRF2 only; control for I28V
[4] = target: KEAP1 (wild-type full-length), His-tagged (human) (UniProt Q14145); experiment: AlphaScreen; 9.6 nM FLAG-NRF2, 150 nM His-KEAP1; wild type set to 100%
[5] = target: KEAP1 (wild-type full-length), His-tagged (human) (UniProt Q14145); experiment: AlphaScreen; FLAG-NRF2 wt isoform 1 38.4 nM, His-KEAP1 150 nM; Rep 1; positive control for Q75R
[6] = target: KEAP1 (wild-type full-length), His-tagged (human) (UniProt Q14145); experiment: AlphaScreen; FLAG-NRF2 wt isoform 1 307.2 nM, His-KEAP1 150 nM; Rep 1; positive control for Q75R
[7] = target: KEAP1 (wild-type full-length), His-tagged (human) (UniProt Q14145); experiment: AlphaScreen; 38.4 nM FLAG-NRF2, 150 nM His-KEAP1; Repeat 1 (same value as in Table 26)
[8] = target: KEAP1 (wild-type full-length), His-tagged (human) (UniProt Q14145); experiment: AlphaScreen; 76.8 nM FLAG-NRF2, 150 nM His-KEAP1; signal against NRF2 only; control for I28V
[9] = target: KEAP1 (wild-type full-length), His-tagged (human) (UniProt Q14145); experiment: AlphaScreen, all variants on one plate; average of three conditions ± standard deviation, KEAP1 150 nM; relative to NRF2 (WT) isoform 1
[10] = target: KEAP1 (wild-type full-length), His-tagged (human) (UniProt Q14145); experiment: AlphaScreen; standard deviation of three conditions; against wild-type NRF2 isoform 1
[11] = target: KEAP1 (wild-type full-length), His-tagged (human) (UniProt Q14145); experiment: AlphaScreen; 38.4 nM FLAG-NRF2, 150 nM His-KEAP1; Rep 1
[12] = target: KEAP1 (wild-type full-length), His-tagged (human) (UniProt Q14145); experiment: AlphaScreen, all variants on one plate; lower condition (9.6 nM NRF2), KEAP1 150 nM; relative to NRF2 (WT) isoform 1
[13] = target: KEAP1 (wild-type full-length), His-tagged (human) (UniProt Q14145); experiment: AlphaScreen; over 9.6, 19.2 and 38.4 nM NRF2; 150 nM His-KEAP1
[14] = target: KEAP1 (wild-type full-length), His-tagged (human) (UniProt Q14145); experiment: AlphaScreen, all variants on one plate; upper condition (38.4 nM NRF2), KEAP1 150 nM; relative to NRF2 (WT) isoform 1
[15] = target: KEAP1 (wild-type full-length), His-tagged (human) (UniProt Q14145); experiment: AlphaScreen, all variants on one plate; optimal condition (19.2 nM NRF2), KEAP1 150 nM; relative to NRF2 (WT) isoform 1
[16] = target: KEAP1 (wild-type full-length), His-tagged (human) (UniProt Q14145); experiment: AlphaScreen; 76.8 nM FLAG-NRF2, 150 nM His-KEAP1; Rep 2
[17] = target: KEAP1 (wild-type full-length), His-tagged (human) (UniProt Q14145); experiment: AlphaScreen; average ± standard deviation over three NRF2 concentrations, KEAP1 150 nM; relative to wild-type NRF2 isoform 1
[18] = target: KEAP1 (wild-type full-length), His-tagged (human) (UniProt Q14145); experiment: AlphaScreen; FLAG-NRF2 Q75R 9.6 nM, His-KEAP1 150 nM; Repeat 2
[19] = target: KEAP1 (wild-type full-length), His-tagged (human) (UniProt Q14145); experiment: AlphaScreen; NRF2 Q75R 38.4 nM, KEAP1 150 nM; signal against NRF2-only control
[20] = target: KEAP1 (wild-type full-length), His-tagged (human) (UniProt Q14145); experiment: AlphaScreen; mean over 9.6, 19.2 and 38.4 nM NRF2 Q75R, KEAP1 150 nM; relative to wild-type NRF2 isoform 1
[21] = target: KEAP1 (wild-type full-length), His-tagged (human) (UniProt Q14145); experiment: AlphaScreen; FLAG-NRF2 I86V 307.2 nM, His-KEAP1 150 nM; Rep 2
[22] = target: KEAP1 (wild-type full-length), His-tagged (human) (UniProt Q14145); experiment: AlphaScreen; FLAG-NRF2 I86V 19.2 nM, His-KEAP1 150 nM; Rep 2
[23] = target: KEAP1 (wild-type full-length), His-tagged (human) (UniProt Q14145); experiment: AlphaScreen; NRF2 I86V 9.6 nM, KEAP1 150 nM; signal against NRF2-only control
[24] = target: KEAP1 (wild-type full-length), His-tagged (human) (UniProt Q14145); experiment: AlphaScreen; FLAG-NRF2 I86V 1228.8 nM, His-KEAP1 150 nM; Rep 2
[25] = target: KEAP1 (wild-type full-length), His-tagged (human) (UniProt Q14145); experiment: AlphaScreen; NRF2 I86V 19.2 nM, KEAP1 150 nM; signal against NRF2-only control
[26] = target: KEAP1 (wild-type full-length), His-tagged (human) (UniProt Q14145); experiment: AlphaScreen; FLAG-NRF2 I86V 9.6 nM, His-KEAP1 150 nM; Rep 1
[27] = target: KEAP1 (wild-type full-length), His-tagged (human) (UniProt Q14145); experiment: AlphaScreen; FLAG-NRF2 I86V 38.4 nM, His-KEAP1 150 nM; Rep 1

KEAP1 (wild-type full-length), His-tagged (human), sequence (Q14145 2-624 limits assumed): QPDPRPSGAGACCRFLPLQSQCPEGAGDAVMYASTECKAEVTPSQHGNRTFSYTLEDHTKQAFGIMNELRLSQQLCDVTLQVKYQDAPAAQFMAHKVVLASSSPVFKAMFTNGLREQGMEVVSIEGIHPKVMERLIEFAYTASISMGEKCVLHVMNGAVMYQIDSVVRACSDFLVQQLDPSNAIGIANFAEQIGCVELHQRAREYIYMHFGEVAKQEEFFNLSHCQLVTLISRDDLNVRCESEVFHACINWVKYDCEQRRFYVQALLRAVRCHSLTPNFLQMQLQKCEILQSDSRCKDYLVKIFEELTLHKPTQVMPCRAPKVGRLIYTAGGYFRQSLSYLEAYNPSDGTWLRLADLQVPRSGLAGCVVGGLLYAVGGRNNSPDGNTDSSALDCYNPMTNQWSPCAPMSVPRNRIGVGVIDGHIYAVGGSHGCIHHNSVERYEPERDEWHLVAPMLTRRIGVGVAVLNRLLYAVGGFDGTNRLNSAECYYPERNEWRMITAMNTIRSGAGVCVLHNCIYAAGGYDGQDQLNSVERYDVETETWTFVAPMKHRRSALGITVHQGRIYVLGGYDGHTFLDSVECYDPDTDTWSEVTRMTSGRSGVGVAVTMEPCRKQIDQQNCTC

B1: NRF2 isoform 1 (wild-type full-length), FLAG-tagged (protein)
chain: MMDLELPPPGLPSQQDMDLIDILWRQDIDLGVSREVFDFSQRRKEYELEKQKKLEKERQEQLQKEQEKAFFAQLQLDEETGEFLPIQPAQHIQSETSGSANYSQVAHIPKSDALYFDDCMQLLAQTFPFVDDNEVSSATFQSLVPDIPGHIESPVFIATNQAQSPETSVAQVAPVDLDGMQQDIEQVWEELLSIPELQCLNIENDKLVETTMVPSPEAKLTEVDNYHFYSSIPSMEKEVGNCSPHFLNAFEDSFSSILSTEDPNQLTVNSLNSDATVNTDFGDEFYSAFIAEPSISNSMPSPATLSHSLSELLNGPIDVSDLSLCKAFNQNHPESTAEFNDSDSGISLNTSPSVASPEHSVESSSYGDTLLGLSDSEVEELDSAPGSVKQNGPKTPVHSSGDMVQPLSPSQGQSTHVHDAQCENTPEKELPVSPGHRKTPFTKDKHSSRLEAHLTRDELRAKALHIPFPVEKIINLPVVDFNEMMSKEQFNEAQLALIRDIRRRGKNKVAAQNCRKRKLENIVELEQDLDHLKDEKEKLLKEKGENDKSLHLLKKQLSTLYLEVFSMLRDEDGKPYSPSEYSLQQTRDGNVFLVPKSKKPDVKKN
For B1, the % Disruption in Binding [1] was 0%, the A-counts [2] was 2000 A-counts and the S/N [3] was 1. For the same binder, the Binding Percentage (%) [4] was 100%, the A-counts (NRF2 plus KEAP1) [5] was 1480 A-counts and the A-counts (NRF2 plus KEAP1) [6] was 1560 A-counts. It also gave an A-counts [7] of 2000 A-counts and a S/N [8] of 2.7.

B2: NRF2 isoform 1 (I28V full-length), FLAG-tagged (protein)
chain: B1 chain with I28V
B2 gave a % Disruption in Binding (Reported Values) [9] of 20.3%, a Reported Value (standard deviation of reduction in binding) [10] of 7.2% and an A-counts [11] of 1690 A-counts. It also gave a % Disruption in Binding [12] of 16.7%, a Standard Deviation (of binding percentage) [13] of 7.2% and a % Disruption in Binding [14] of 21.5%. It also gave a % Disruption in Binding [15] of 22.6% and an A-counts [16] of 1500 A-counts.

B3: NRF2 isoform 1 (Q75R full-length), FLAG-tagged (protein)
chain: B1 chain with Q75R
In the case of B3, the Reported Value (reduction in binding) [17] is reported as 30.2%, the % Disruption in Binding (Reported Values) [9] is reported as 27.5% and the % Disruption in Binding [12] is reported as 29.3%. The A-counts (NRF2 plus KEAP1) [18] was 1090 A-counts, the % Disruption in Binding [14] was 25.1% and the S/N [19] was 2.4. It also gave a % Disruption in Binding [15] of 28.3%, an Average Binding [20] of 69.8% and an Avg. Reduction in Binding [20] of 30.2%.

B4: NRF2 isoform 1 (I86V full-length), FLAG-tagged (protein)
chain: B1 chain with I86V
B4 was tested, and the A-counts (NRF2 plus KEAP1) [21] was 2120 A-counts, the A-counts (NRF2 plus KEAP1) [22] was 3160 A-counts and the Reported Value (reduction in binding) [17] was 3.2%. The % Disruption in Binding (Reported Values) [9] was 8.4%, the S/N [23] was 3.6 and the % Disruption in Binding [12] was 5.7%. The A-counts (NRF2 plus KEAP1) [24] was 1580 A-counts, the % Disruption in Binding [14] was 10.5% and the S/N [25] was 4. For the same binder, the % Disruption in Binding [15] was 9.2%, the A-counts (NRF2 plus KEAP1) [26] was 2730 A-counts and the A-counts (NRF2 plus KEAP1) [27] was 3010 A-counts.
